Literature values in article PMC10093836, “Stabilization of the Dimeric State of SARS-CoV-2 Main Protease by GC376 and Nirmatrelvir” (International Journal of Molecular Sciences, 2023).

Molecular target: Mpro (SARS-CoV-2) (UniProt P0DTD1)

For Mpro (from UniProt P0DTD1), the Kd is listed as 7 µM.
